In patent US20170101472A1 (Regeneron, published 2017):
Numbering of substitutions follows the chain as printed. In names and notes the source's numbering stands. Values belong to the binder of their own block, whether it stands above or below them.

How the values were obtained:
[1] = biological target: T1, recombinant human LAG3 expressed with a C-terminal mouse IgG2a mFc tag (human); assay: SPR, mAb captured, 25 C
T1 construct: Called dimeric; also called hLAG3-mFc; hLAG3 dimer
T1 chain: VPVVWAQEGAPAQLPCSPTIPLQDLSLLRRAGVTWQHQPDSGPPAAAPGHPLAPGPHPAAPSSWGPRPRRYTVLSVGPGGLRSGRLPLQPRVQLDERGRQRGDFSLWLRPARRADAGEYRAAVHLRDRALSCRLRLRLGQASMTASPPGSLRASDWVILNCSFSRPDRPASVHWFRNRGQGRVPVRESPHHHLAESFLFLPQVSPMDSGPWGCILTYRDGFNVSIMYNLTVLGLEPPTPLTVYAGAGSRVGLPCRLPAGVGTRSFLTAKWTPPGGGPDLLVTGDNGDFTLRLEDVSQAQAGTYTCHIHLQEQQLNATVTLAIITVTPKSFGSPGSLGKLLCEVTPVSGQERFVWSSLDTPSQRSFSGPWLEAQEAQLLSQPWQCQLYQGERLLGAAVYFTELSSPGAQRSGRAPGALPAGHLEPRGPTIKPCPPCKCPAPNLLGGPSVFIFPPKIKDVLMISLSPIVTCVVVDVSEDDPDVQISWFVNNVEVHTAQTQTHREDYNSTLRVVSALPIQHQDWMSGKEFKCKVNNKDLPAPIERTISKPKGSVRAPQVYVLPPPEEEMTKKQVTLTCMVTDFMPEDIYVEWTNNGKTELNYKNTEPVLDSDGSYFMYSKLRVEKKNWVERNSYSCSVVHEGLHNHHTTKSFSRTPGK
Description: (§1) The BiaCore sensor surface was derivatized with either a polyclonal rabbit anti-mouse antibody (GE, # BR-1008-38) or with a monoclonal mouse anti-human Fc antibody (GE, # BR-1008-39) to capture approximately 50-85 RUs of anti-LAG3 monoclonal antibodies, expressed with either a mouse Fc or a human Fc, respectively. […] The binding of the LAG3 reagents to captured monoclonal antibodies was monitored for 4 minutes while their dissociation from the antibodies was monitored for 8 minutes in HBST running buffer (0.01 M HEPES pH 7.4, 0.15 M NaCl, 3 mM EDTA, 0.05% v/v Surfactant P20). Experiments were performed at 25° C. and 37° C. Kinetic association (kₐ) and dissociation (kd) rate constants were determined by processing and fitting the data to a 1:1 binding model using Scrubber 2.0c curve fitting software. Binding dissociation equilibrium constants (KD) and dissociative half-lives (t_{1/2}) were then calculated from the kinetic rate constants as: KD (M)=kd/kₐ and t_{1/2} (min)=[ln2/(60*kd)].

[2] = biological target: T2, recombinant human LAG3 expressed with a C-terminal myc-myc-hexahistidine tag (human, UniProt P18627 29-450); assay: SPR, mAb captured, 25 C
T2 construct: also called hLAG3-mmh; hLAG3.mmh
Description: as §1

[3] = biological target: T3, human LAG3 expressed on HEK293 cells (human, UniProt P18627 23-525); assay: flow cytometry, HEK293/hLAG3 cells
T3 construct: also called hLAG3; HEK293/hLAG3
T3 sequence: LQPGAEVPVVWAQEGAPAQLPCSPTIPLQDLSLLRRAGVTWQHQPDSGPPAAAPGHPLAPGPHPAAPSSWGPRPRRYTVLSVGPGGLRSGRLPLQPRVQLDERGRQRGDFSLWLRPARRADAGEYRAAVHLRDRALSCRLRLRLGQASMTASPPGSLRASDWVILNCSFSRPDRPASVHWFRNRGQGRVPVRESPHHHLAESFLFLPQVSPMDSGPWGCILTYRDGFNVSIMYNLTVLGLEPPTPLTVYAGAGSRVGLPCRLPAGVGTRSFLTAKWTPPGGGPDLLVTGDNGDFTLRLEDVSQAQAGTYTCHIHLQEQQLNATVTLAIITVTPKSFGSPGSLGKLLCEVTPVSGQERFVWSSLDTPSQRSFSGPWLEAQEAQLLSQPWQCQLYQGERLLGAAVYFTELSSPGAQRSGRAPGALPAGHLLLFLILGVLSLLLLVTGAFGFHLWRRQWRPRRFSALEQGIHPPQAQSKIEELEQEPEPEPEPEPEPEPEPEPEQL
Description: The serially diluted antibodies were added to the cell suspension and incubated for 15-30 minutes on ice. The cells were centrifuged and pellets were washed with staining buffer to remove unbound antibodies. […] The cells were centrifuged and pellets were washed with staining buffer to remove unbound secondary F(ab′)2 and fixed overnight with a 1:1 dilution of Cytofix (BD Biosciences, #554655) and staining buffer. Following day, fixed cells were centrifuged and pellets were washed with staining buffer, resuspended and filtered. Fluorescence measurements were acquired on HyperCyt® cytometer and analyzed in ForeCyt™ (IntelliCyt; Albuquerque, N. Mex.) to determine the mean fluorescence intensities (MFI). The EC₅₀ values were calculated from a four-parameter logistic equation over an 11-point response curve using GraphPad Prism. EC₅₀ was defined as the concentration of antibody at which 50% of maximal binding signal is detected. The MFI ratio for each antibody was calculated by dividing the MFI at 100 nM by MFI at 0 nM of antibody concentration.

[4] = biological target: T1, recombinant human LAG3 expressed with a …; assay: SPR, mAb captured, 37 C
Description: as §1

[5] = biological target: T2, recombinant human LAG3 expressed with a …; assay: SPR, mAb captured, 37 C
Description: as §1

B4: H4sH15482P (antibody, human IgG4 S228P, kappa)
heavy: QVQLVESGGGVVQPGRSLRLSCVASGFTFSSYGMHWVRQAPGKGLEWVAIIWYDGSNKYYADSVKGRFTISRDNSKNTQYLQMNSLRAEDTAVYYCASVATSGDFDYYGMDVWGQGTTVTVSSASTKGPSVFPLAPCSRSTSESTAALGCLVKDYFPEPVTVSWNSGALTSGVHTFPAVLQSSGLYSLSSVVTVPSSSLGTKTYTCNVDHKPSNTKVDKRVESKYGPPCPPCPAPPVAGPSVFLFPPKPKDTLMISRTPEVTCVVVDVSQEDPEVQFNWYVDGVEVHNAKTKPREEQFNSTYRVVSVLTVLHQDWLNGKEYKCKVSNKGLPSSIEKTISKAKGQPREPQVYTLPPSQEEMTKNQVSLTCLVKGFYPSDIAVEWESNGQPENNYKTTPPVLDSDGSFFLYSRLTVDKSRWQEGNVFSCSVMHEALHNHYTQKSLSLSLGK
light: EIVLTQSPATLSLSPGERTTLSCRASQRISTYLAWYQQKPGQAPRLLIYDASKRATGIPARFSGSGSGTGFTLTISSLEPEDFAVYYCQQRSNWPLTFGGGTKVEIKRTVAAPSVFIFPPSDEQLKSGTASVVCLLNNFYPREAKVQWKVDNALQSGNSQESVTEQDSKDSTYSLSSTLTLSKADYEKHKVYACEVTHQGLSSPVTKSFNRGEC
notes: H4sH = modified human IgG4 Fc; also called mAb1
Kd [1]: ≤ 0.0141 nM
t1/2 [1]: ≥ 1160 min
Kd [2]: 1.23 nM
t1/2 [2]: 44.5 min
EC50 [3]: 1.11 nM
Kd [4]: 0.0316 nM
t1/2 [4]: 70.3 min
Kd [5]: 1.82 nM
t1/2 [5]: 22.6 min

B5: H4H15482P (antibody, human IgG4 S228P, kappa)
heavy: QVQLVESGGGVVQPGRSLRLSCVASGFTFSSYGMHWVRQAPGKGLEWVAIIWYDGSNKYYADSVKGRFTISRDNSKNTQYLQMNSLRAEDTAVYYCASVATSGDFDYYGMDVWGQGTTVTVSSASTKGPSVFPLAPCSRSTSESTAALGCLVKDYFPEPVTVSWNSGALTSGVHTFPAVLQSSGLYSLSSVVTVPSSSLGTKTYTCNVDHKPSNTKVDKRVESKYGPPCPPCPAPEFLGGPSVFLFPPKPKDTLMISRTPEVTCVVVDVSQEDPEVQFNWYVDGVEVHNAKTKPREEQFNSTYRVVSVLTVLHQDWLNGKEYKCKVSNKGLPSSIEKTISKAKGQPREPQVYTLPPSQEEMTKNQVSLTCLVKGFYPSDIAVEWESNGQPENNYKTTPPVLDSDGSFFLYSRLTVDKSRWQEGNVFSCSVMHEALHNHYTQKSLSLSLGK
light: B4 light
notes: H4H = human IgG4 Fc with S108P
Kd [1]: ≤ 0.0132 nM
t1/2 [1]: ≥ 1160 min
Kd [2]: 0.972 nM
t1/2 [2]: 59.7 min
EC50 [3]: 1.91 nM
Kd [4]: 0.0891 nM
t1/2 [4]: 128 min
Kd [5]: 1.96 nM
t1/2 [5]: 20.2 min

B6: H4sH14813N (antibody, human IgG4 S228P, kappa, V domains shown)
VH: QVQLQQWGAGLLKPSETLSLTCAVYGGSFSGYYWNWIRQPPGKGLEWVGEISHRGSTNYNPSLKSRVTISLDTSKNQFSLKLTSVTAADTAVYYCSRDEELEFRFFDYWGQGTLVTVSS
VL: EIVLTQSPATLSLSPGERATLSCRASQSVSSYLAWYQQKPGQAPRLLVYGASNRATGIPARFSGSGSGTDFTLTISSLEPEDFAFYYCQQRSNWPLTFGGGTKVEIKR
notes: H4sH = modified human IgG4 Fc
Kd [1]: 0.0106 nM
koff [1]: 1.9e-05 s⁻¹
kon [1]: 1.8e+06 M⁻¹ s⁻¹
t1/2 [1]: 607 min
Kd [2]: 0.177 nM
koff [2]: 7.89e-05 s⁻¹
kon [2]: 445000 M⁻¹ s⁻¹
t1/2 [2]: 146 min
EC50 [3]: 1.18 nM
Ratio of MFI (100 nM/0 nM) [3]: 197
Kd [4]: 0.0295 nM
koff [4]: 0.000101 s⁻¹
kon [4]: 3.42e+06 M⁻¹ s⁻¹
t1/2 [4]: 114 min
Kd [5]: 0.266 nM
koff [5]: 0.000154 s⁻¹
kon [5]: 578000 M⁻¹ s⁻¹
t1/2 [5]: 75.1 min

B7: H4sH15498P2 (antibody, V domains shown)
VH: EVQLVESGGGLVQPGGSLRLSCAASGFTFTSYAMTWVRQAPGKGLEWVSDISGSGGRTYYADSVKGRFTISRDNSKNMLYLQMNILRAEDTAVYHCAKGTGQQVDLYNYYYALDVWGQGTTVTVSS
VL: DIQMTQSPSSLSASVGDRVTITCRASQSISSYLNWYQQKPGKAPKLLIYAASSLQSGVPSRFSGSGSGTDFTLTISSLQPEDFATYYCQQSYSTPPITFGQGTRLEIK
notes: H4sH = human IgG4 Fc with 2 or more amino acid changes as disclosed in US20140243504
Kd [1]: ≤ 0.0352 nM
koff [1]: ≤ 1e-05 s⁻¹
kon [1]: 284000 M⁻¹ s⁻¹
t1/2 [1]: ≥ 1160 min
Kd [2]: 0.645 nM
koff [2]: 0.000101 s⁻¹
kon [2]: 157000 M⁻¹ s⁻¹
t1/2 [2]: 114 min
EC50 [3]: 7.92 nM
Ratio of MFI (100 nM/0 nM) [3]: 401
Kd [4]: 0.0194 nM
koff [4]: 1e-05 s⁻¹
kon [4]: 515000 M⁻¹ s⁻¹
t1/2 [4]: ≥ 1160 min
Kd [5]: 0.185 nM
koff [5]: 7.08e-05 s⁻¹
kon [5]: 378000 M⁻¹ s⁻¹
t1/2 [5]: 163 min

B8: H4H15498P2 (antibody, human IgG4, V domains shown)
VH: B7 VH
VL: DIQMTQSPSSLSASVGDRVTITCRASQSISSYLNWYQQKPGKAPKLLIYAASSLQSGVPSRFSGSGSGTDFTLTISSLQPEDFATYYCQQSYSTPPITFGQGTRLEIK
notes: H4H = human IgG4 Fc with S108P hinge mutation
Kd [1]: ≤ 0.0276 nM
koff [1]: ≤ 1e-05 s⁻¹
kon [1]: 363000 M⁻¹ s⁻¹
t1/2 [1]: ≥ 1160 min
Kd [2]: 0.26 nM
koff [2]: 7.81e-05 s⁻¹
kon [2]: 301000 M⁻¹ s⁻¹
t1/2 [2]: 148 min
EC50 [3]: 5.76 nM
Ratio of MFI (100 nM/0 nM) [3]: 305
Kd [4]: 0.0217 nM
koff [4]: 1e-05 s⁻¹
kon [4]: 460000 M⁻¹ s⁻¹
t1/2 [4]: ≥ 1160 min
Kd [5]: 0.0783 nM
koff [5]: 2.96e-05 s⁻¹
kon [5]: 381000 M⁻¹ s⁻¹
t1/2 [5]: 390 min

Continued, values first:

Kd [1]: ≤ 0.00435 nM
koff [1]: ≤ 1e-05 s⁻¹
kon [1]: 2.3e+06 M⁻¹ s⁻¹
t1/2 [1]: ≥ 1160 min
Kd [2]: 0.0493 nM
koff [2]: 5.35e-05 s⁻¹
kon [2]: 1.09e+06 M⁻¹ s⁻¹
t1/2 [2]: 216 min
EC50 [3]: 0.752 nM
Ratio of MFI (100 nM/0 nM) [3]: 203
Kd [4]: 0.00399 nM
koff [4]: 1e-05 s⁻¹
kon [4]: 2.5e+06 M⁻¹ s⁻¹
t1/2 [4]: ≥ 1160 min
Kd [5]: 0.0321 nM
koff [5]: 4.08e-05 s⁻¹
kon [5]: 1.27e+06 M⁻¹ s⁻¹
t1/2 [5]: 283 min
B1: H4H15479P (antibody, human IgG4, V domains shown)
VH: QVQLQQWGAGLLNPSETLSLTCAVYGGAFSDYYWNWIRQPPGKGLEWIGEINHRGSTNYNPSLKSRVTISVDTSKNQFSLRMSSVTAADAAVYYCARGEDYDIWNGYYQEKWGQGTLVTVSS
VL: EIVLTQSPATLSLSPGERATLSCRASQSISTYLAWYQQKPGQAPRLLIYDASKRATGIPARFSGSGSGTDFTLTISSLEPEDFVVYYCHQRSNWPLTFGGGTKVEIK

Kd [1]: ≤ 0.00745 nM
koff [1]: ≤ 1e-05 s⁻¹
kon [1]: 1.34e+06 M⁻¹ s⁻¹
t1/2 [1]: ≥ 1160 min
Kd [2]: 1.97 nM
koff [2]: 0.00037 s⁻¹
kon [2]: 188000 M⁻¹ s⁻¹
t1/2 [2]: 31.2 min
EC50 [3]: 2.31 nM
Ratio of MFI (100 nM/0 nM) [3]: 206
Kd [4]: 0.215 nM
koff [4]: 0.000298 s⁻¹
kon [4]: 1.38e+06 M⁻¹ s⁻¹
t1/2 [4]: 38.8 min
Kd [5]: 1.43 nM
koff [5]: 0.00111 s⁻¹
kon [5]: 774000 M⁻¹ s⁻¹
t1/2 [5]: 10.4 min
B2: H4H15483P (antibody, human IgG4, V domains shown)
VH: QVQLQQWGAGLLPPSETLSLICAVYGGSFSGYYWSWIRQPPGKGLEWIGEINHRGSTNYNPSLKSRATISVDTSKNQFSLKLSSVTAADTAVYYCSRGEDYYDSSGYSYYFDYWGQGTLVTVSS
VL: B1 VL with I29V, T31S, K53N, V84A, H89Q
notes: as for B8

Kd [1]: ≤ 0.0104 nM
koff [1]: ≤ 1e-05 s⁻¹
kon [1]: 958000 M⁻¹ s⁻¹
t1/2 [1]: ≥ 1160 min
Kd [2]: 0.214 nM
koff [2]: 8.8e-05 s⁻¹
kon [2]: 411000 M⁻¹ s⁻¹
t1/2 [2]: 131 min
EC50 [3]: 1.44 nM
Ratio of MFI (100 nM/0 nM) [3]: 208
Kd [4]: 0.0274 nM
koff [4]: 0.000117 s⁻¹
kon [4]: 4.27e+06 M⁻¹ s⁻¹
t1/2 [4]: 98.8 min
Kd [5]: 0.284 nM
koff [5]: 0.000152 s⁻¹
kon [5]: 535000 M⁻¹ s⁻¹
t1/2 [5]: 76 min
B3: H4H14813N (antibody, human IgG4, V domains shown)
VH: B6 VH
VL: B1 VL with I29V, T31S, I48V, D50G, K53N, V84A, V85F, H89Q
notes: as for B8
